{"source": "patent US20060046250A1", "about": "(SEOUL NATIONAL UNIVERSITY INDUSTRY FOUNDATION, published 2006)", "binders": {"B1": {"name": "ATM fragment consisting of 145 amino acids, including the C-terminal domain (other, UniProt Q13315 2912-3056, looked up)", "chain": "RDIVDGMGITGVEGVFRRCCEKTMEVMRNSQETLLTIVEVLLYDPLFDWTMNPLKALYLQQRPEDETELHPTLNADDQECKRNLSDIDQSFNKVAERVLMRLQEKLKGVEEGTVLSVGGQVNLLIQQAIDPKNLSRLFPGWKAWV", "modifications": "radioactive methionine (in vitro translated)", "notes": "domain: C-terminal domain; Made by in vitro transcription and translation from pcDNA3.1; Its limits are set only by the PCR primers; also called C-terminal domain of ATM; control group fragment"}}, "biological_target": "T1, GST-AIM3 fusion protein (human, UniProt O43324 1-174)", "T1 construct": "Immobilised on glutathione-sepharose beads; also called GST-fused AIM3; GST-fused AIM3 protein; not shown: glutathione S-transferase (GST) fusion partner from the Pharmacia system; The vector, the linker and the order of the fu", "T1 sequence": "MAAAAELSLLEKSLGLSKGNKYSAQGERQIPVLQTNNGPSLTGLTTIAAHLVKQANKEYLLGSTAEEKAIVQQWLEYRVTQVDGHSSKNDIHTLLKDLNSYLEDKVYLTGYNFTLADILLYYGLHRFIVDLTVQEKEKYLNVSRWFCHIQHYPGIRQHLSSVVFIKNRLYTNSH", "test": "GST pull-down of in vitro translated, radiolabelled fragment, autoradiography", "source_text": "First, AIM3 was expressed as GST fusion protein and purified according to the manufacturer's protocol (Pharmacia). Meanwhile, since it was difficult to synthesize the whole ATM due to its large size, the present inventors tested the interaction between the functional domain of ATM and AIM3. For this purpose, a fragment consisting of 612 amino acids, including the FAT domain of an ATM structure, was amplified by PCR with primers shown in SEQ ID NO: 12 and SEQ ID NO: 13. Also, a fragment (control group) consisting of 145 amino acids, including the C-terminal domain, was amplified by PCR with primers shown in SEQ ID NO: 14 and SEQ ID NO: 15. Then, the amplified PCR products were subdloned into pcDNA3.1 (Invitrogen), a vector suitable for in vitro transcription and […]. At this time, the protein was synthesized by in vitro translation in the presence of radioactive methionine. 10 μl of the synthesized TNT product was incubated with the GST- or GST-AIM3 fusion protein-immobilized glutathion-sepharose beads for 5 minutes. Then, the beads were washed six times with a binding buffer (PBS containing 0.2% sarcosine and 0.2% Triton X100), and dissolved in 10% SDS-PAGE. The binding of the GST-fused AIM3 to each domain was determined by autoradiography.", "data": [{"binder": "B1", "values": [{"measurement": "binding result", "result": "no binding"}]}]}
